Laboratory results: patent publication US5861501

System: influenza endonuclease (purified viral ribonucleoprotein, low-pH treated; polymerase-associated cap-dependent endonuclease) (Influenza virus)
Assay: competition
Conditions: 5'-triphosphate; 2'-OMe on G1; 3'-terminal 3'-dA; filter retention competition; binding is cap dependent; scale: % of labeled capped 10-mer binding competed at up to 150 nM

Sequence: GUAUUAAUAA [5'-triphosphorylated 10-mer (uncapped)]
- binding signal: 10
